Assay results: patent US20240352117A1 (QYUNS THERAPEUTICS, published 2024)

How the values were obtained:
[1] = target: T1, Human thymic stromal lymphopoietin (TSLP) (human, UniProt Q969D9 29-159); experiment: SPR, Biacore T200, 25 C, antibody captured on Protein A chip, human TSLP as analyte, 1:1 model, mean of three tests
T1 construct: also called human TSLP; hTSLP
Description: Biacore T200 was used to detect the affinity of QX008N (HZD8G2-57) binding to human TSLP. All processes were performed at 25° C. A commercial Protein A chip was used to immobilize an appropriate amount of antibody through the capture method so that Rmax was around 50RU and the capture flow rate was 10 μl/min. The antigen was diluted by gradient, the flow rate of the instrument was switch to 30 μl/min, and the antigen flowed through the reference channel and the fixed antibody channel in order from low to high concentration, with the antigen flowing through the buffer as a negative control. After each binding and dissociation was completed, the chip was regenerated with glycine at pH 1.5. The 1:1 binding model in Kinetics option was selected for fitting using the analysis software that comes with the instrument, and the binding rate constant kₐ, the dissociation rate constant kd and the equilibrium dissociation constant KD value of the antibody were calculated.
The detection method for known antibodies was the same as that for QX008N.

[2] = target: Cynomolgus monkey TSLP (cynomolgus monkey, UniProt A0A7N9CAT7 29-159); experiment: cell-based or functional assay
Sequence of Cynomolgus monkey TSLP (A0A7N9CAT7 entry or part of it): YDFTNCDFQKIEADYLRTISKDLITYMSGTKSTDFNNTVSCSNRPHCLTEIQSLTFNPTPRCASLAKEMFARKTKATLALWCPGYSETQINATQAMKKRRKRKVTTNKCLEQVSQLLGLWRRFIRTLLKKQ

[3] = target: T1, Human thymic stromal lymphopoietin …; experiment: cell-based or functional assay
[4] = target: natural TSLP; experiment: cell-based or functional assay

B1: QX008N (HZD8G2-57) (antibody, human IgG1, kappa, V domains shown)
VH: EVQLVESGGGLVQPGGSLRLSCAASGFSLSSYYMSWVRQAPGKGLEWVGFISYGGSAYHATWAQGRFTISKDNSKNTLYLQMNSLRAEDTAVYYCAREFRSMTYGAEWGIWGQGTLVTVSS
VL: AYQMTQSPSSVSASVGDRVTITCQASESIYDTLAWYQQKPGKAPKLLIYSASSLASGVPSRFSGSGSGTDFTLTISSLQPEDFATYYCQQGYTMPDVDKNPFGGGTKVEIKR
notes: Humanized rabbit antibody from clone 8G2; Expressed in ExpiCHO-S cells and purified with Protein A; also called humanized 8G2
In the case of B1, the Kd [1] is reported as 0.0175 nM, the koff [1] is reported as 2.99e-05 s⁻¹ and the kon [1] is reported as 1.74e+06 M⁻¹ s⁻¹. For the same binder, the “IC50 of inhibiting STAT5 phosphorylation in SW756-STAT5-Luciferase reporter gene cells induced by Cynomolgus monkey TSLP” value [2] was 0.889 ng/mL, the “IC50 of inhibiting STAT5 phosphorylation in SW756-STAT5-Luciferase reporter gene cells induced by human TSLP” value [3] was 0.837 ng/mL and the “IC50 of inhibiting the release of TARC (CCL17) from PBMCs induced by human TSLP” value [3] was 77.1 ng/mL. For the same binder, the “IC50 of inhibiting the release of TARC (CCL17) from human whole blood induced by human TSLP” value [3] was 0.839 ng/mL and the “IC50 of inhibiting STAT5 phosphorylation in SW756-STAT5-Luciferase reporter gene cells induced by natural TSLP” value [4] was 0.462 ng/mL.

B2: Tezepelumab (antibody, V domains shown)
VH: QMQLVESGGGVVQPGRSLRLSCAASGFTFRTYGMHWVRQAPGKGLEWVAVIWYDGSNKHYADSVKGRFTITRDNSKNTLNLQMNSLRAEDTAVYYCARAPQWELVHEAFDIWGQGTMVTVSS
VL: SYVLTQPPSVSVAPGQTARITCGGNNLGSKSVHWYQQKPGQAPVLVVYDDSDRPSWIPERFSGSNSGNTATLTISRGEAGDEADYYCQVWDSSSDHVVFGGGTKLTVLG
With B2 the “IC50 of inhibiting STAT5 phosphorylation in SW756-STAT5-Luciferase reporter gene cells induced by Cynomolgus monkey TSLP” value [2] was 1.88 ng/mL.
